{"source": "paper PMC4497662", "about": "“Single Turnover Autophosphorylation Cycle of the PKA RIIβ Holoenzyme” (PLoS Biology, 2015)", "binders": {"B1": {"name": "GST-RIIβ 102–416 (nonphosphorylated, wild type) (domain or fragment, rat, UniProt P12369 102-416, looked up)", "chain": "PVINRFTRRASVCAEAYNPDEEEDDAESRIIHPKTDDQRNRLQEACKDILLFKNLDPEQMSQVLDAMFEKLVKEGEHVIDQGDDGDNFYVIDRGTFDIYVKCDGVGRCVGNYDNRGSFGELALMYNTPRAATITATSPGALWGLDRVTFRRIIVKNNAKKRKMYESFIESLPFLKSLEVSERLKVVDVIGTKVYNDGEQIIAQGDSADSFFIVESGEVRITMKRKGKSDIEENGAVEIARCLRGQYFGELALVTNKPRAASAHAIGTVKCLAMDVQAFERLLGPCMEIMKRNIATYEEQLVALFGTNMDIVEPTA", "notes": "also called nonphospho form of RIIβ; source: E. coli BL21 (DE3), purified (cAMP resin, cGMP elution); cyclic nucleotide-free"}, "B2": {"name": "phosphorylated GST-RIIβ 102–416 (pRIIβ) (domain or fragment, rat, UniProt P12369 102-416, looked up)", "chain": "B1 chain", "modifications": "phosphoserine at 112", "notes": "source: E. coli BL21 (DE3), purified; phosphorylated in preformed holoenzyme with C-subunit and MgATP, C-subunit released on the chip with 500 nM cGMP"}, "B3": {"name": "GST-RIIβ 102–416 S112A (domain or fragment, rat, UniProt P12369 102-416, looked up)", "chain": "B1 chain with S11A", "notes": "also called RIIβ(S112A); source: E. coli BL21 (DE3), purified (cAMP resin, cGMP elution); cyclic nucleotide-free"}, "B4": {"name": "RIIβ(1–416, R230K), phosphorylated at Ser112 in the crystal (natural protein)", "chain": "not shown", "modifications": "phosphoserine at 112 (after the soak with CaATP)", "notes": "Two copies stand with two C-subunits in the RIIβ2:C2 holoenzyme; also called pRIIβ; RIIβ(R230K); source: E. coli BL21 (DE3), purified (cAMP resin, cGMP elution); holoenzyme crystals soaked with 5 mM CaCl2 and 1 mM ATP"}}, "key": {"[1]": {"molecular_target": "T1, PKA catalytic subunit (isoform α), mouse (mouse, UniProt P05132 2-351)", "test": "SPR; GST-RIIβ 102–416 (nonphospho, phospho or S112A) captured on an anti-GST antibody CM5 chip (80–120 RU), C-subunit injected; buffer A (20 mM MOPS, 150 mM NaCl, 100 μM EDTA, 100 μM EGTA, 0.01% P20) with 1 mM ATP and 10 mM MgCl2; global fit, 1:1 Langmuir; 25°C stated for the series of Fig 5", "conditions": "both partners purified"}, "[2]": {"molecular_target": "T1, PKA catalytic subunit (isoform α), mouse", "test": "SPR; GST-RIIβ 102–416 (nonphospho or phospho) captured on an anti-GST antibody CM5 chip (80–120 RU), C-subunit 0.3–200 nM injected; buffer A only (chelators EDTA/EGTA, no nucleotide or metal); global fit, 1:1 Langmuir", "conditions": "both partners purified"}, "[3]": {"molecular_target": "T1, PKA catalytic subunit (isoform α), mouse", "test": "SPR; GST-RIIβ 102–416 wild type and S112A captured on an anti-GST antibody CM5 chip (80 RU), C-subunit 30–0.12 nM injected; buffer A with 1 mM ATP and 10 mM CaCl2; 30 μL/min, 25°C", "conditions": "both partners purified"}, "[4]": {"molecular_target": "T1, PKA catalytic subunit (isoform α), mouse", "test": "SPR; GST-RIIβ 102–416 (nonphospho or phospho) captured on an anti-GST antibody CM5 chip (80–120 RU), C-subunit 0.3–200 nM injected; buffer A with 1 mM ADP and 10 mM MgCl2; global fit, 1:1 Langmuir", "conditions": "both partners purified"}, "[5]": {"molecular_target": "T1, PKA catalytic subunit (isoform α), mouse", "test": "SPR; GST-RIIβ 102–416 (nonphospho, phospho or S112A) captured on an anti-GST antibody CM5 chip (80–120 RU), C-subunit injected; buffer A (20 mM MOPS, 150 mM NaCl, 100 μM EDTA, 100 μM EGTA, 0.01% P20) with 1 mM ATP and 10 mM MgCl2; global fit, 1:1 Langmuir; 25°C stated for the series of Fig 5", "conditions": "both partners purified", "remark": "listed apart in the source"}, "[6]": {"molecular_target": "the molecule itself", "test": "crystal structure; apo RIIβ(1–416, R230K)2:C2 holoenzyme crystals soaked overnight with 5 mM CaCl2 and 1 mM ATP; 2.8 Å"}, "[7]": {"molecular_target": "T1, PKA catalytic subunit (isoform α), mouse", "test": "crystal structure; apo RIIβ(1–416, R230K)2:C2 holoenzyme crystals soaked overnight with 5 mM CaCl2 and 1 mM ATP; 2.8 Å", "conditions": "both partners purified"}}, "note": "Residue numbers refer to the chain shown, from its start. Names and notes keep the numbering of the source.", "data": [{"binder": "B1", "values": [{"measurement": "Kd", "setting": "[1]", "result": 0.14, "unit": "nM"}, {"measurement": "koff", "setting": "[1]", "result": 0.0003, "unit": "s⁻¹"}, {"measurement": "kon", "setting": "[1]", "result": "2.1e+06", "unit": "M⁻¹ s⁻¹"}, {"measurement": "Kd", "setting": "[2]", "result": 0.39, "unit": "nM"}, {"measurement": "koff", "setting": "[2]", "result": 0.00021, "unit": "s⁻¹"}, {"measurement": "kon", "setting": "[2]", "result": 530000, "unit": "M⁻¹ s⁻¹"}, {"measurement": "koff", "setting": "[3]", "result": "~0.0001", "unit": "s⁻¹"}, {"measurement": "Kd", "setting": "[4]", "result": 0.24, "unit": "nM"}, {"measurement": "koff", "setting": "[4]", "result": 0.00015, "unit": "s⁻¹"}, {"measurement": "kon", "setting": "[4]", "result": 640000, "unit": "M⁻¹ s⁻¹"}]}, {"binder": "B2", "values": [{"measurement": "Kd", "setting": "[1]", "result": 7, "unit": "nM"}, {"measurement": "koff", "setting": "[1]", "result": 0.00026, "unit": "s⁻¹"}, {"measurement": "kon", "setting": "[1]", "result": 38000, "unit": "M⁻¹ s⁻¹"}, {"measurement": "Kd", "setting": "[2]", "result": 0.31, "unit": "nM"}, {"measurement": "koff", "setting": "[2]", "result": 0.00011, "unit": "s⁻¹"}, {"measurement": "kon", "setting": "[2]", "result": 340000, "unit": "M⁻¹ s⁻¹"}, {"measurement": "Kd", "setting": "[4]", "result": 0.22, "unit": "nM"}, {"measurement": "koff", "setting": "[4]", "result": 0.00012, "unit": "s⁻¹"}, {"measurement": "kon", "setting": "[4]", "result": 550000, "unit": "M⁻¹ s⁻¹"}]}, {"binder": "B3", "values": [{"measurement": "binding result", "setting": "[5]", "result": "binds"}]}, {"binder": "B4", "values": [{"measurement": "binding result", "setting": "[6]", "result": "binds"}, {"measurement": "binding result", "setting": "[7]", "result": "binds"}]}]}
